In publication PMC10318062 (Nature Communications, 2023):

B1: BD-629 (antibody, V domains shown)
VH: EVQLVESGGGLIQPGGSLRLSCAASEFIVSRNYMSWVRQAPGKGLEWVSVIYSGGSTYYADSVKGRFTISRDNSKNTLNLQMNSLRAEDTAVYYCARDYGDYYFDYWGQGTLVTVSS
VL: EIVLTQSPGTLSLSPGERATLSCRASQGVSSFLAWYQQKPGQAPRLLIHGASSRATGIPDRFSGSGSGTDFTLTITRLEPEDFAVYYCQQYGSSPRTFGQGTKVEIK
B2: CC12.3 (antibody, V domains shown)
VH: QVQLVESGGGLIQPGGSLRLSCAASGFTVSSNYMSWVRQAPGKGLEWVSVIYSGGSTFYADSVKGRFTISRDNSKSTLYLQMNSLRVEDTAVYYCARDFGDFYFDYWGQGTLVTVSS
VL: not shown
B3: COVA1-07 (antibody, V domains shown)
VH: QVQLVESGAEVKKPGSSVKVSCKASGGTLSSYAITWVRQAPGQGLEWVGGIIPIFGTANYAQKFQGRVTITADESTSTAYMELSSLRSEDTAVYYCARVGAYDSSGYSNDYWGQGTLVTVSS
VL: DIQLTQSPATLSLSPGERATLSCRASQSVSSYLAWYQQKPGQAPRLLIYDASNRATGIPARFSGSGSGTDFTLTISSLEPEDFAVYYCQQRSNWPPRVTFGGGTKVEIK
B4: COVA2-14 (antibody, V domains shown)
VH: QVQLVQSGAEVKKPGSSVKVSCKASGGTFSSYAIIWVRQAPGQGLEWMGGIIPIFGTANYAQKFQGRVTITTDESTSTAYMELSSLRSEDTAVYYCARVRYYDSSGYYEDYWGQGTLVTVSS
VL: EIVLTQSPATLSLSPGERATLSCRASQSVSSYLAWYQQEPGQAPRLLIYDASNRATGIPARFSGSGSGTDFTLTISSLEPEDFAVYYCQQRSNWPPMYTFGQGTKVEIK
B5: COVA2-18 (antibody, V domains shown)
VH: EVQLVQSGAEVKKPGSSVKVSCKASGGTFSSYAISWVRQAPGQGLEWMGGIIPIFGTTNYAQKFQGRVTITTDESTSTAYMELSSLRSEDTAVYYCARVYSYDSSGYYLEYWGQGTRVTVSS
VL: EIVLTQSPATLSLSPGERATLSCRASQSVSSYLAWYQQKPGQAPRLLIYDASNRATGIPARFSGSGSGTDFTLTISSLEPEDFAVYYCQQRSNWPPSITFGQGTRLEIK
B6: COVA2-41 (antibody, V domains shown)
VH: EVQLVESGGGLVKPGGSLRLSCSASGFTFSNYNMDWVRQAPGKGLEWVSSISSSSSYIYLADSVKGRFTISRDNAKNSLYLQMNSLRAEDTAVYYCARVQKDIVVVPVALADYYYYGMDVWGQGTTVTVSS
VL: DIVMTQSPATLSVSPGERATLSCRASQSVSSNLAWYQQKPGQAPRLLIYGASTRATGIPARFSGSGSGTEFTLTISSLQPEDFAVYYCQQCYNWPPWTFGQGTRVEFK
B7: BD-236 (antibody, V domains shown)
VH: EVQLVESGGGLIQPGGSLRLSCAASGITVSSNYMSWVRQAPGKGLEWVSVIYSGGSTDYADSVKGRFTISRDKSKNTLYLQMNSLRAEDTAVYYCARDLGEAGGMDVWGQGTTVTVSS
VL: AIQLTQSPSSLSASVGDRVTITCRASQGISSYLAWYQQKPGKAPKLLIYAASTLQSGVPSRFSGSGSGTDFTLTISSLQPEDFATYYCQQLNSYPPAFGGGTKVEIK
B8: BD-368-2 (antibody, V domains shown)
VH: EVQLLESGGGVVQPGGSLRLSCAASGFAFTTYAMNWVRQAPGRGLEWVSAISDGGGSAYYADSVKGRFTISRDNSKNTLYLQMNSLRAEDTAVYYCAKTRGRGLYDYVWGSKDYWGQGTLVTVSS
VL: AIQLTQSPSSLSASVGDRVTITCRASQGISSYLAWYQQKPGKAPKLLIYAASTLQSGVPSRFSGSGSGTDFTLTISSLQPEDFATYYCQQLNSYPPAFGGGTKVEIK
B9: C119 (antibody, V domains shown)
VH: QVQLVQSGAEVKKPGASVKVSCKASGYTFTSYYMHWVRQAPGQGLEWMGIINPSGGSTSYAQKLQGRVTMTRDTSTSTVYMELSSLRSEDTAVYYCARANHETTMDTYYYYYYMDVWGKGTTVTVSS
VL: QSALTQPASVSGSPGQSITISCTGTSSDVGGYKYVSWYQRHPGKAPKLMIYDVSNRPSGVSNRFSGSKSGNTASLTISGLQAEDEADYYCSSYTSSSTSVVFGGGTQLTVL
B10: C110 (antibody, V domains shown)
VH: QVQLQQSGAEVKKPGESLKISCKGSGYSFTSYWIGWVRQMPGKGLEWMGIIYPGDSDTRYSPSFQGQVTISADKSISTAYMQWSSLKASDTAMYYCARSFRDDPRIAVAGPADAFDIWGQGTMVTVSS
VL: DIQMTQSPSTLSASVGDRVTITCRASQSISYWLAWYQQKPGKAPKLLIYQASSLESGVPSRFSGSESGTEFTLTISSLQPDDFATYYCQQYNSYPYTFGQGTKLEIK
B11: COVA3-08 (antibody, V domains shown)
VH: EVQLVESGPGLVKPSETLSLTCTVSGGSISSYYWSWIRQPPGKGLEWIGYIYYSGSTNYNPSLKSRVTISVDTSKNQFSLRLSSVTAADTAVYYCARGPAATYYYYMDVWGKGTMVTVSS
VL: not shown
B12: C121 (antibody, V domains shown)
VH: not shown
VL: QSALTQPASVSGSPGQSITISCTGTSSDVGSYNLVSWYQQHPGKAPKLMIYEGSKRPSGVSNRFSGSKSGNTASLTISGLQAEDEADYYCCSYAGSSTLVFGGGTKLTVL
B13: COVA2-39 (antibody, V domains shown)
VH: QVQLVETGGGLIQPGGSLRLSCAASGFTVSSNYMSWVRQAPGKGLEWVSVIYTGGTTYYADSVKGRFTISRDNSKNTLYLQMNSLRAEDTAVYYCARAHVDTAMVESGAFDIWGQGTRVTVSS
VL: QSALTQPASVSGSPGQSITISCTGTSSDVGSYNLVSWYQQHPGKAPKLMIYEVTKRPSGVSNRFSGSKSGNTASLTISGLQAEDEADYYCCSYAGSSTWVFGGGTKLTVL
B14: COVA2-43 (antibody, V domains shown)
VH: QVQLVQPGAEVKKPGASVKVSCKASGYTFTSYGISWVRQAPGQGLEWMGWISAYNGDTNYAQKLQGRVTMTTDTSTSTAYMELRSLKSDDTAVYYCARFDYGYPYSSWSVLSIDYWGQGTLVTVSS
VL: DIVMTQSPSSLSASVGDRVTITCRASQGIRNDLGWYQQKPGKAPKRLIYAASSLQSGVPSRFSGSGSGTEFTLTISSLQPEDFATYYCLQHNSYPLTFGGGTKLEIK
B15: C105 (antibody, V domains shown)
VH: QVQLVESGGGLIQPGGSLRLSCAASGFTVSSNYMSWVRQAPGKGLEWVSVIYSGGSTYYADSVKGRFTISRDNSKNTLYLQMNSLRAEDTAVYYCARGEGWELPYDYWGQGTLVTVSS
VL: QSALTQPPSGSGSPGQSVTISCTGTSSDVGGYKYVSWYQQHPGKAPKLMIYEVSKRPSGVPDRFSGSKSGNTASLTVSGLQAEDEADYYCSSYEGSNNFVVFGGGTKLTVL
B16: COVA1-18 (antibody, V domains shown)
VH: EVQLVESGGGLVQPGGSLRLSCAASGFTVSSNYMSWVRQAPGKGLEWVSVIYSGGSTYYADSVKGRFTISRDNSKNTLYLQMNSLRAEDTAVYYCARVEWAAAGTFYWGQGTLVTVSS
VL: QSALTQEPSLTVSPGGTVTLTCGSSTGAVTSGHYPYWFQQKPGQAPRTLIYDTSNKRSWTPARFSGSLLGGKAALTLSGAQPEDEAEYYCLLSYSGVWVFGGGTKLTVL
B17: COVA2-10 (antibody, V domains shown)
VH: EVQLLESGGGLVQPGGSLKLSCAASGFTFSSYAMSWVRQAPGKGLEWVSAISGSGSNTYYADSVKGRFTISRDNSKNTLYLQMNSLRAEDTAVYYCAKGLRGQQLVIPTEYFQHWGQGTLVTVSS
VL: not shown
B18: COVA2-34 (antibody, V domains shown)
VH: QVQLVESGGGVVQPGRSLRLSCAASGFTFSSYAMHWVRQAPGKGLEWVAVISYDGSNKYYADSVKGRFTISRDNSKNTLYLQMNSLRAEDTAVYYCARSASGSYYGAFDYWGQGTLVTVSS
VL: QTVVTQPASVSGSPGQSITISCTGTSSDVGGYNYVSWYQQHPGKAPKLMIYDVSNRPSGVSNRFSGSKSGNTASLTISGLQAEDEADYYCSSYTSSSTLGLYVFGTGTKVTVL
B19: BD-604 (antibody, V domains shown)
VH: EVQLVESGGGLIQPGGSLRLSCAASGIIVSSNYMTWVRQAPGKGLEWVSVIYSGGSTFYADSVKGRFTISRDNSKNTLYLQMSSLRAEDTAVYYCARDLGPYGMDVWGQGTTVTVSS
VL: DIQLTQSPSFLSASVGDRVTITCRASQGISSDLAWYQQKPGKAPNLLIYAASTLQSGVPSRFSGSGSGTEFTLTISSLQPEDFATYYCQQLNSDLYTFGQGTKLEIK
B20: CC12.1 (antibody, V domains shown)
VH: EVQLVESGGGLIQPGGSLRLSCAASGLTVSSNYMSWVRQAPGKGLEWVSVIYSGGSTFYADSVKGRFTISRDNSKNTLYLQMNSLRAEDTAVYYCARDLDVYGLDVWGQGTTVTVSS
VL: DIVMTQSPSFLSASVGDRVTITCRASQGISSYLAWYQQKPGKAPKLLIYAASTLQSGVPSRFSGSGSGTEFTLTISSLQPEDFATYYCQQLNSYPPKFTFGPGTKVEIK
B21: COVA2-28 (antibody, V domains shown)
VH: EVQLVESGGGVVQPGRSLRLSCAASGFTFSSYGMHWVRQAPGKGLEWVAVIWYDGSNKYYADSVKGRFTISRDNSKNTLYLQMDSLRAEDTAMYYCAKDKAPPCSSGWYYFDYWGQGTLVTVSS
VL: not shown
B22: C002 (antibody, V domains shown)
VH: EVQLVESGGGVVQPGRSLRLSCAASGFTFSIYGMHWVRQAPGKGLEWVAVISYDGSNKYYADSVKGRFTISRDNSKNTLYLQMNSLRAEDTAVYYCAKEGRPSDIVVVVAFDYWGQGTLVTVSS
VL: not shown
B23: C144 (antibody, V domains shown)
VH: EVQLVESGGGLIQPGGSLRLSCAASGFTVSNNYMSWVRQAPGKGLEWVSVIYSGGSTYYADSVKGRFTISRDKSKNTLYLQMNRLRAEDTAVYYCAREGEVEGYNDFWSGYSRDRYYFDYWGQGTLVTVSS
VL: QSALTQPASVSGSPGQSITISCTGTSSDVGGYNYVSWYQQHPGKAPKLMIYDVSNRPSGVSNRFSGSKSGNTASLTISGLQAEDEADYYCSSYTSSSTRVFGTGTKVTVL

Molecular target: SARS-CoV-2 hexaproline stabilized pre-fusion spike glycoprotein (S6P) (SARS-CoV-2, ancestral (Wuhan-Hu-1 …, UniProt P0DTC2, stabilised))

Binder	binding result
B1	binds
B2	binds
B3	binds
B4	binds
B5	binds
B6	binds
B7	binds
B8	binds
B9	binds
B10	binds
B11	binds
B12	binds
B13	binds
B14	binds
B15	binds
B16	binds
B17	binds
B18	binds
B19	binds
B20	binds
B21	binds
B22	binds
B23	binds
